Laboratory results taken from paper PMC5841405 (Nature Communications, 2018).

Experiments:
[1] = target: the molecule itself; assay: SEC-MALS; Superose 6 10/300 GL, 20 mM Tris pH 7.5, 100 mM NaCl, 1 mM DTT
[2] = target: the molecule itself; assay: ITC; titration of the protein into buffer (dilution); dimer to monomers; 20 mM HEPES pH 7.5, 100 mM NaCl, 0.25 mM TCEP

B1: BICD2_(1–98) (domain or fragment, human, UniProt Q8TD16-1 1-98, looked up)
chain: MSAPSEEEEYARLVMEAQPEWLRAEVKRLSHELAETTREKIQAAEYGLAVLEEKHQLKLQFEELEVDYEAIRSEMEQLKEAFGQAHTNHKKVAADGES
notes: human BICD2, UniProt Q8TD16-1, residues 1-98 (includes the CC1-Box); Purified 'as described above' (pMAL-c2x); source: E. coli BL21 (DE3), purified (amylose column, TEV cleavage, gel filtration)
stoichiometry N [1]: 2

B2: Hook1_(11–443) (domain or fragment, human, UniProt Q9UJC3-1 11-443, looked up)
chain: KLPLCDSLMIWLQTFNTASPCQDVKQLTSGVAMAQVLHQIDAAWFNESWLSRIKEDVGDNWRIKASNVKKVLQGIMSYYHEFLGQQISEALIPDLNQITECSDPVELGRLLQLILGCAINCEKKQEHIQNIMTLEESVQHVVMTAIQELMSKEILSSPPNDAVGELEQQLKRALEELQEALAEKEELRQRCEELDMQVTTLQDEKNSLVSENEMMNEKLDQLDGSFDDPNTVVAKKYFHAQLQLEQLQEENFRLEAAKDDYRVHCEELEKQLIEFQHRNDELTSLAEETRALKDEIDVLRATSDKANKLESTVEIYRQKLQDLNDLRKQVKTLQETNMMYMHNTVSLEEELKKANAARTQLETYKRQVQDLHVKLSSESKRADTLAFEMKRLEEKHEALLKEKERLIEQRDTLKETNEELRCSQVQQDHLNQT
notes: human Hook1, UniProt Q9UJC3-1, residues 11-443 (extends to the end of CC2); Dimeric by SEC-MALS; source: E. coli BL21 (DE3), purified (amylose column, TEV cleavage, gel filtration)
stoichiometry N [1]: 2

B3: Spindly_(1–142) (domain or fragment, human, UniProt Q96EA4-1 1-142, looked up)
chain: MEADIITNLRCRLKEAEEERLKAAQYGLQLVESQNELQNQLDKCRNEMMTMTESYEQEKYTLQREVELKSRMLESLSCECEAIKQQQKMHLEKLEEQLSRSHGQEVNELKTKIEKLKVELDEARLSEKQLKHQVDHQKELLS
notes: human Spindly, UniProt Q96EA4-1, residues 1-142 (includes the CC1-Box); Cloned in pCold1; source: E. coli BL21 (DE3), purified (Ni-NTA, TEV cleavage, Superdex 75)
stoichiometry N [1]: 2

B4: Hook1_(11–238) (domain or fragment, human, UniProt Q9UJC3-1 11-238, looked up)
chain: KLPLCDSLMIWLQTFNTASPCQDVKQLTSGVAMAQVLHQIDAAWFNESWLSRIKEDVGDNWRIKASNVKKVLQGIMSYYHEFLGQQISEALIPDLNQITECSDPVELGRLLQLILGCAINCEKKQEHIQNIMTLEESVQHVVMTAIQELMSKEILSSPPNDAVGELEQQLKRALEELQEALAEKEELRQRCEELDMQVTTLQDEKNSLVSENEMMNEKLDQLDGSFDD
notes: human Hook1, UniProt Q9UJC3-1, residues 11-238 (Hook domain and CC1 region); In equilibrium between dimers and monomers; source: E. coli BL21 (DE3), purified (amylose column, TEV cleavage, gel filtration)
Kd [2]: 2100 nM
